T1: human NPR1 extracellular domain expressed with a C-terminal mouse IgG2a (hNPR1-mFc) (human)
T1 construct: also called hNPR1-Fc; human NPR1 dimer
T1 chain: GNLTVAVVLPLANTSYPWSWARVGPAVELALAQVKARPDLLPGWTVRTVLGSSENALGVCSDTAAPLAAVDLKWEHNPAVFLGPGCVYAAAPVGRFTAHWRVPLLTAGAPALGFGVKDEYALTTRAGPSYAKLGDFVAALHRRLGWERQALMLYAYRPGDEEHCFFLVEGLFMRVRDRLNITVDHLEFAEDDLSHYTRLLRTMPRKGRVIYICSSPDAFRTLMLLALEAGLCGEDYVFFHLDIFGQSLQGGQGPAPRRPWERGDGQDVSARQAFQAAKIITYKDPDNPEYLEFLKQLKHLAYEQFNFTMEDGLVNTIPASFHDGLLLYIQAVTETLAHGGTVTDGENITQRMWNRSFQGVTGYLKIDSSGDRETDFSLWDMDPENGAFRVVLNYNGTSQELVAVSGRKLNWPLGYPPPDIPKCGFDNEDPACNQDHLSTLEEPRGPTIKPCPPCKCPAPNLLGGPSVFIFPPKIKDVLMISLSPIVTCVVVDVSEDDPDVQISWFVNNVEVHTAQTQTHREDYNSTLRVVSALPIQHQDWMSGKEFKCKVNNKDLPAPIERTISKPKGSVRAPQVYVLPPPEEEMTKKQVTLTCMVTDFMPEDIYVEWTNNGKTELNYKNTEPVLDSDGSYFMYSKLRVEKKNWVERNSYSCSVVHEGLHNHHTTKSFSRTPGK

T2: monkey NPR1 extracellular domain expressed with a C-terminal myc-myc-hexahistidine (mfNPR1-MMH) (monkey, UniProt P16066 33-473 (human entry))
T2 construct: also called monomeric monkey NPR1
T2 chain: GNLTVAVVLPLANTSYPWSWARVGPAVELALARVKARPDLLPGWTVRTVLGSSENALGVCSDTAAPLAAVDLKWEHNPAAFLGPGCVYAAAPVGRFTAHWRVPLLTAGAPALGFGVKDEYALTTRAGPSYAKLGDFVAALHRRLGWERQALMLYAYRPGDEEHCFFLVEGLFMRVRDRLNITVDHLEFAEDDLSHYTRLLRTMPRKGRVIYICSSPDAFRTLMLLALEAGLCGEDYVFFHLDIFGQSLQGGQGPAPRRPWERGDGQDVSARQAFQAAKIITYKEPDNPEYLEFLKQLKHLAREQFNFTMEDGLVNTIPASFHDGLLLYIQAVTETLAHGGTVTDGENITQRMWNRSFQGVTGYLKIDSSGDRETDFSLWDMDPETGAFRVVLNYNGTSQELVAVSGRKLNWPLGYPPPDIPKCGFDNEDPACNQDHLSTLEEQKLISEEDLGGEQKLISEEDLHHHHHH

T3: mNPR1-mFc (mouse)
T3 construct: also called mouse NPR1 extracellular domain expressed with a C-terminal mouse IgG2a
T3 chain: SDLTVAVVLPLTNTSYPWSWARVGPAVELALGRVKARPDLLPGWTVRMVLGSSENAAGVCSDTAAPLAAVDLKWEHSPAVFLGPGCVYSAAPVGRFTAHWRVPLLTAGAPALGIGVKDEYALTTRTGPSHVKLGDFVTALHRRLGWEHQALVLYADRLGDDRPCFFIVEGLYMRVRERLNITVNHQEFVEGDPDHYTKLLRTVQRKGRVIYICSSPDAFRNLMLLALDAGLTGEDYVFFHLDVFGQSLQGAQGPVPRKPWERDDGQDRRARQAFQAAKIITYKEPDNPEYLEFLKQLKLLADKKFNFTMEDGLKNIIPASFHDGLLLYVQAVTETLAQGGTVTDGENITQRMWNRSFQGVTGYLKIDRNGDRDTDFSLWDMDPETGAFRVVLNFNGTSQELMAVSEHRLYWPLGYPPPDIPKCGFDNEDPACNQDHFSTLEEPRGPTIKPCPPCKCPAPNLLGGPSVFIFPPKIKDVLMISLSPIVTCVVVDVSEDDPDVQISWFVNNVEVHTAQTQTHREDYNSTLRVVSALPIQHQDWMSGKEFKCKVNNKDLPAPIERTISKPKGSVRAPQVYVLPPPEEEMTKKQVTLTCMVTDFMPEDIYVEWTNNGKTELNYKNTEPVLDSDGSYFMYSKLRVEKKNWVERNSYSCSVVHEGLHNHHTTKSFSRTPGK

T4: human NPR1 on HEK293/hNPR1.myc.DDK cells (0 hANP) (human, UniProt P16066 33-1061)
T4 sequence: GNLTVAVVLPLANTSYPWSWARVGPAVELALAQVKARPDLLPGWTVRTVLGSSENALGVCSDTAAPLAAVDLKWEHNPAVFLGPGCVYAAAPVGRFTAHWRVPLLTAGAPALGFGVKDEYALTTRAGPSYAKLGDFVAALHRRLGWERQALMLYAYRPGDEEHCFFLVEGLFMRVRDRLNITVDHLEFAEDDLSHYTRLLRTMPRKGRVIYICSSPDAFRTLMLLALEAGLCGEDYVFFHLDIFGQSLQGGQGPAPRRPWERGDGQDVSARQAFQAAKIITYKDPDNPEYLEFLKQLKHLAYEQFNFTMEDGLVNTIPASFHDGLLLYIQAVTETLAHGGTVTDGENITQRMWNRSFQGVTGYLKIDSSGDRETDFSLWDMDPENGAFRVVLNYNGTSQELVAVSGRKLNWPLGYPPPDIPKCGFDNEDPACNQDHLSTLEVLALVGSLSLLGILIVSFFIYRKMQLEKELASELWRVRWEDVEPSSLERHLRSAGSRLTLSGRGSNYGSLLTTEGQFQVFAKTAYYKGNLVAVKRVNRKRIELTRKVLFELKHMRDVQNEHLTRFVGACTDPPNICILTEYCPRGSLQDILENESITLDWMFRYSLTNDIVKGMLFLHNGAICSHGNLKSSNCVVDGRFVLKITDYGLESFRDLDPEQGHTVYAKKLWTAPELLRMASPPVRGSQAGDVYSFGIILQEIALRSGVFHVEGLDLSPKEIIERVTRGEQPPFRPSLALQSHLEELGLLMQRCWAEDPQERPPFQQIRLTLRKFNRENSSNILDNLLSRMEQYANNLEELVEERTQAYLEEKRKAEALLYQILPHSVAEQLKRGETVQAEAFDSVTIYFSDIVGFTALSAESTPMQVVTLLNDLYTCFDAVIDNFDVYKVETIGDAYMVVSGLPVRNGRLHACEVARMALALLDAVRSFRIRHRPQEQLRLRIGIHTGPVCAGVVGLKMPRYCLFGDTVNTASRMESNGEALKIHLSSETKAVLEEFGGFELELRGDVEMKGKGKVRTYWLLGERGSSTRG

T5: human NPR1 on HEK293/hNPR1.myc.DDK cells with 10 nM hANP (NPR1-ANP complex) (human, UniProt P01160 124-151)
T5 construct: also called NPR1-ANP Complex on the Cell Surface
T5 sequence: T4 sequence
T5 sequence (peptide): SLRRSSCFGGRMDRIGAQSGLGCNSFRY

B1: mAb22810 (antibody, V domains shown)
VH: EVQLVESGGGLVKPGGSLRLSCVVSGFTFRIYTMNWVRQAPGKGLEWVASISSSSSFINYADSLKGRFTISRDNAQNSLYLQMNSLRAEDTAIYYCARAAGNDVLPGRMDVWGQGTSVTVSS
VL: EIVLTQSPGTLSLSPGERATLSCRASQSVSSNYLAWYQQKPGQVPSLLIYGASSRATGIPDRFSGSGSGTDFTLTITRLEPEDFAVYYCQQYGISPWTFGQGTKVEIK
B2: mAb22033 (antibody, human IgG4, V domains shown)
VH: QVQLVQSGAEVKKPGASVTVSCKASGYTFTDYYMHWVRQAPGQGLEWMGWIKPNSGGTNSAQRFQGRITMTWDTSISTAYMELSRLRSDDTAVYYCSRGGPVMNYYYYYGMDVWGQGTTVTVSS
VL: NIQMTQSPSSLSASVGDRVTITCRASQSIDSYLNWYQQKPGKAPKLLIYVASSLQSGVPSRFSGSGSGKDFTLTISSLQPEDFATYYCQQSYSIPTFGQGTRLEIK
B3: mAb25502 (antibody, human IgG4, V domains shown)
VH: QLQLQESGPGLVKPSETLSLTCTVSGGSISSSSYYWGWIRQPPGKGLEWIGSIYYSGSPYYIPSLKSRVTISVDTSKNQFSLKLSSVTAADTAMYYCARQGRGIARAGPFDYWGQGTLVTVSS
VL: DIQMTQSPSSLSASVGDRVTITCRASQGISNYLAWYQEKPGKVPKLLIYAASTLQSGVPSRFSGSGSGTDFTLTITSLQSEDVATYYCQKYNSAPPWTFGQGTKVEIK

How the values were obtained:
[1] = molecular target: T1, human NPR1 extracellular domain …; experiment: SPR, mAb captured, 37 C
Procedure: (§1) Equilibrium dissociation constant (KD) for different NPR1 reagents binding to purified anti-NPR1 monoclonal antibodies (mAbs) were determined using a real-time surface plasmon resonance based Biacore 4000 biosensor. All binding studies were performed in 10 mM HEPES, 150 mM NaCl, 3 mM EDTA, and 0.05% v/v Surfactant Tween-20, pH 7.4 (HBS-ET) running buffer at 25° C. and 37° C. The Biacore CM5 sensor chip surface was first derivatized by amine coupling with either mouse anti-human Fc specific mAb (GE Healthcare, #BR100839) or goat anti-human Fcy specific polyclonal antibody (Jackson ImmunoResearch Laboratories, #BR-1008-39) to capture anti-NPR1 mAbs.

[2] = molecular target: T2, monkey NPR1 extracellular domain …; experiment: SPR, mAb captured, 37 C
Procedure: as §1

[3] = molecular target: T6, mouse NPR1 extracellular domain expressed with a C-terminal myc-myc-hexahistidine (mNPR1-MMH) (mouse, UniProt P18293 29-469); experiment: SPR, mAb captured, 37 C
Procedure: as §1
Target sequence in this assay (P18293 other isoform, or with tags, fused parts or gaps): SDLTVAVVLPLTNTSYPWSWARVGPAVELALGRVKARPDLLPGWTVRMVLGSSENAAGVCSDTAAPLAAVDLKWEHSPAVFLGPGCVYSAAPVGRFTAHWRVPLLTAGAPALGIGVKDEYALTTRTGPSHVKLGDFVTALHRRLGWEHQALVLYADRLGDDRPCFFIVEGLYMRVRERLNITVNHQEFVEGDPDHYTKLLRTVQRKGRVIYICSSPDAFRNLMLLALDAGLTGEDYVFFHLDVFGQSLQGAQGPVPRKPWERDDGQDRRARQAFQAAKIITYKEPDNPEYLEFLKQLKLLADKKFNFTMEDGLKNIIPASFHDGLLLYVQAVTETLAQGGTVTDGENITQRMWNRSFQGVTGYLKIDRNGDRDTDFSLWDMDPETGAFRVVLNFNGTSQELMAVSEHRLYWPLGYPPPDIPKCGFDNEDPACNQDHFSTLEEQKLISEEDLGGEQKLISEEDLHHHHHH

[4] = molecular target: T1, human NPR1 extracellular domain …; experiment: SPR, mAb captured, 25 C
Procedure: as §1

[5] = molecular target: T2, monkey NPR1 extracellular domain …; experiment: SPR, mAb captured, 25 C
Procedure: as §1

[6] = molecular target: T6, mouse NPR1 extracellular domain …; experiment: SPR, mAb captured, 25 C
Procedure: as §1

mNPR1-mFc [7] = molecular target: T3, mNPR1-mFc; experiment: SPR Biacore, mAb captured by anti-human Fc, 25C
Procedure: as §1

[8] = molecular target: T4, human NPR1 on HEK293/hNPR1.myc.DDK …; experiment: cell-based or functional assay
mfNPR1-mFc:hBNP complex = molecular target: T7, mfNPR1-mFc:hBNP complex (monkey; human, UniProt P16860 103-134); experiment: SPR Biacore, mAb captured by anti-human Fc, 37C
T7 construct: Receptor-Fc pre-complexed with 10-fold hBNP
Procedure: as §1

mNPR1-mFc [9] = molecular target: T3, mNPR1-mFc; experiment: SPR Biacore, mAb captured by anti-human Fc, 37C
Procedure: as §1

[10] = molecular target: T5, human NPR1 on HEK293/hNPR1.myc.DDK …; experiment: ECL cell binding (MSD), +10 nM hANP
Procedure: (§2) All cells were washed once with 1×PBS with Ca²⁺/Mg²⁺ and counted with a Cellometer™ Auto T4 cell counter (Nexcelom Bioscience). Approximately 2.0×10⁴ HEK293/hNPR1.myc.DDK or HEK293 cells were seeded separately onto 96-well carbon electrode plates (MULTI-ARRAY high bind plate, Meso Scale Discovery (MSD, Rockville, MD)) and incubated for 1 hour (h) at 37° C. Nonspecific binding sites were blocked by 2% BSA (w/v) in 1×PBS with Ca²⁺/Mg²⁺for 1 h at room temperature (RT). HEK293/hNPR1.myc. […] The plate-bound antibodies were detected with SULFO-TAG™-conjugated goat polyclonal anti-human IgG antibody specific for heavy and light chains (Jackson Immunoresearch, West Grove, PA) for 1 h, RT.
(§3) After washes, plates were developed with Read Buffer (MSD, Rockville, MD) according to manufacturer's recommended procedure and luminescent signals were recorded with a SECTOR Imager 600 (MSD, Rockville, MD). Luminescence intensity, measured in relative light units (RLU), was recorded to indicate the binding intensity of each antibody at the range of concentrations.
(§4) In addition, direct binding signals (RLU) were analyzed as a function of the antibody concentration and data were fitted with a sigmoidal (four-parameter logistic) dose-response model using R statistical package (open source).

[11] = molecular target: T4, human NPR1 on HEK293/hNPR1.myc.DDK …; experiment: ECL cell binding (MSD), 0 hANP
Procedure: as §2, §3, §4

| Binder | 100 nM Ag Bound (RU) (mNPR1-mFc [7]) | 100 nM Ag Bound (RU) (mfNPR1-mFc:hBNP complex) | Kd (mfNPR1-mFc:hBNP complex) | koff (mfNPR1-mFc:hBNP complex) | kon (mfNPR1-mFc:hBNP complex) | t½ (mfNPR1-mFc:hBNP complex) | 100 nM Ag Bound (RU) (mNPR1-mFc [9]) | Ratio at 3.7 nM Ab concentration of Cell Binding Signal (RLU) to HEK293/hNPR1.myc.DKK relative to parental HEK293 [10] | also measured |
| --- | --- | --- | --- | --- | --- | --- | --- | --- | --- |
| B1 | – | – | – | – | – | – | – | – | 100 nM Ag Bound (RU) [1]: 9 RU; 100 nM Ag Bound (RU) [2]: 0 RU; 100 nM Ag Bound (RU) [3]: -2 RU; 100 nM Ag Bound (RU) [4]: 4 RU; 100 nM Ag Bound (RU) [5]: 1 RU; binding result [5]: no binding (tested: 100 nM); 100 nM Ag Bound (RU) [6]: -1 RU |
| B2 | 0 RU | 167 RU | 1.3 nM | 8.8e-05 s⁻¹ | 67500 M⁻¹ s⁻¹ | 2.19 h | 1 RU | 236 ratio | binding result (mNPR1-mFc [7]): no binding (tested: 100 nM); % Activation (vs ANP max), Expt 1 [8]: 130%; % Activation (vs. ANP max), Expt II [8]: 129%; EC50 (nM), calcium flux, Expt 1 [8]: 83.7 nM; EC50 (nM), calcium flux, Expt II [8]: 41.6 nM; EC50 [10]: 0.82 nM; EC50 [11]: 0.49 nM; Ratio at 3.7 nM Ab concentration of Cell Binding Signal (RLU) to HEK293/hNPR1.myc.DKK relative to parental HEK293 [11]: 207 ratio |
| B3 | 1 RU | 139 RU | 5.65 nM | 0.000481 s⁻¹ | 85200 M⁻¹ s⁻¹ | 0.4 h | 1 RU | 14 ratio | binding result (mNPR1-mFc [9]): no binding (tested: 100 nM) |

Reference: patent publication US20240309103A1 (Regeneron, published 2024)
